Tests used:
Experiment in all cases: SPOT array
[1] = molecular target: T1, Yhr016c SH3 (YSC84_YEAST), P32793
T1 chain: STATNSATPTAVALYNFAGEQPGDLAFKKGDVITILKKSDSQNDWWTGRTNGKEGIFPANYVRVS

[2] = molecular target: T2, Boi2 SH3 (BOI2_YEAST), P39969
T2 chain: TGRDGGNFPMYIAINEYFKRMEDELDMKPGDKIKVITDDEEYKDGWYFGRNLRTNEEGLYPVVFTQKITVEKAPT

[3] = molecular target: T3, Yfr024 SH3 (LSB3_YEAST), P43603
T3 chain: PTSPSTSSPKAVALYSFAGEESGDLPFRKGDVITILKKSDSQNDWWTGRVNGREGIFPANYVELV

[4] = molecular target: T4, Boi1 SH3 (BOI1_YEAST), P38041
T4 chain: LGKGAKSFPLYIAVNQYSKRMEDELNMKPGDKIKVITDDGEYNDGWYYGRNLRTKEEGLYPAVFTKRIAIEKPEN

[5] = molecular target: T5, Rvs167 SH3 (RV167_YEAST), P39743
T5 chain: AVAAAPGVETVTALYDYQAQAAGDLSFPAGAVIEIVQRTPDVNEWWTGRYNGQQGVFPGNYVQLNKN

B1: YOL090W 24-37 (peptide)
chain: TGLPKKPLKTIRLV
normalised SPOT signal, Boehringer light units (BLU); mean over the file's lines of this peptide [1]: 144
normalised SPOT signal, Boehringer light units (BLU); mean over the file's lines of this peptide [2]: 74.6
normalised SPOT signal, Boehringer light units (BLU); mean over the file's lines of this peptide [3]: 746
normalised SPOT signal, Boehringer light units (BLU); mean over the file's lines of this peptide [4]: 57.7
normalised SPOT signal, Boehringer light units (BLU); mean over the file's lines of this peptide [5]: 78.4

B2: YPR115W 471-484 (peptide)
chain: TDPPPQPRRLSDIV
normalised SPOT signal, Boehringer light units (BLU); mean over the file's lines of this peptide [1]: 1780
normalised SPOT signal, Boehringer light units (BLU); mean over the file's lines of this peptide [2]: 36
normalised SPOT signal, Boehringer light units (BLU); mean over the file's lines of this peptide [3]: 5490
normalised SPOT signal, Boehringer light units (BLU); mean over the file's lines of this peptide [4]: 69.1
normalised SPOT signal, Boehringer light units (BLU); mean over the file's lines of this peptide [5]: 122

B3: YPL249C 293-306 (peptide)
chain: STSPKLPPRGKQRE
normalised SPOT signal, Boehringer light units (BLU); mean over the file's lines of this peptide [1]: 72500
normalised SPOT signal, Boehringer light units (BLU); mean over the file's lines of this peptide [2]: 90.9
normalised SPOT signal, Boehringer light units (BLU); mean over the file's lines of this peptide [3]: 20400
normalised SPOT signal, Boehringer light units (BLU); mean over the file's lines of this peptide [4]: 5220
normalised SPOT signal, Boehringer light units (BLU); mean over the file's lines of this peptide [5]: 57900

B4: YMR192W 200-213 (peptide)
chain: STPPTLPPRRIEDP
normalised SPOT signal, Boehringer light units (BLU); mean over the file's lines of this peptide [1]: 49300
normalised SPOT signal, Boehringer light units (BLU); mean over the file's lines of this peptide [2]: 44.5
normalised SPOT signal, Boehringer light units (BLU); mean over the file's lines of this peptide [3]: 27500
normalised SPOT signal, Boehringer light units (BLU); mean over the file's lines of this peptide [4]: 194
normalised SPOT signal, Boehringer light units (BLU); mean over the file's lines of this peptide [5]: 24400

B5: YBR082C 59-72 (peptide)
chain: TDYPFKPPKISFTT
normalised SPOT signal, Boehringer light units (BLU); mean over the file's lines of this peptide [1]: 116
normalised SPOT signal, Boehringer light units (BLU); mean over the file's lines of this peptide [2]: 89.1
normalised SPOT signal, Boehringer light units (BLU); mean over the file's lines of this peptide [3]: 374
normalised SPOT signal, Boehringer light units (BLU); mean over the file's lines of this peptide [4]: 54.7
normalised SPOT signal, Boehringer light units (BLU); mean over the file's lines of this peptide [5]: 43.3

B6: YNL321W 116-129 (peptide)
chain: TATPSSPKRMHSSI
normalised SPOT signal, Boehringer light units (BLU); mean over the file's lines of this peptide [1]: 244
normalised SPOT signal, Boehringer light units (BLU); mean over the file's lines of this peptide [2]: 36.1
normalised SPOT signal, Boehringer light units (BLU); mean over the file's lines of this peptide [3]: 534
normalised SPOT signal, Boehringer light units (BLU); mean over the file's lines of this peptide [4]: 50.9
normalised SPOT signal, Boehringer light units (BLU); mean over the file's lines of this peptide [5]: 81.7

B7: YPR040W 50-63 (peptide)
chain: TAAPATPPRHISNN
normalised SPOT signal, Boehringer light units (BLU); mean over the file's lines of this peptide [1]: 58900
normalised SPOT signal, Boehringer light units (BLU); mean over the file's lines of this peptide [2]: 41.4
normalised SPOT signal, Boehringer light units (BLU); mean over the file's lines of this peptide [3]: 30400
normalised SPOT signal, Boehringer light units (BLU); mean over the file's lines of this peptide [4]: 275
normalised SPOT signal, Boehringer light units (BLU); mean over the file's lines of this peptide [5]: 13200

B8: YLR289W 228-241 (peptide)
chain: TGRPDKPFRALLVD
normalised SPOT signal, Boehringer light units (BLU); mean over the file's lines of this peptide [1]: 656
normalised SPOT signal, Boehringer light units (BLU); mean over the file's lines of this peptide [2]: 47.3
normalised SPOT signal, Boehringer light units (BLU); mean over the file's lines of this peptide [3]: 5660
normalised SPOT signal, Boehringer light units (BLU); mean over the file's lines of this peptide [4]: 110
normalised SPOT signal, Boehringer light units (BLU); mean over the file's lines of this peptide [5]: 789

B9: YDL029W 109-122 (peptide)
chain: TEPPMNPLKNREKM
normalised SPOT signal, Boehringer light units (BLU); mean over the file's lines of this peptide [1]: 125
normalised SPOT signal, Boehringer light units (BLU); mean over the file's lines of this peptide [2]: 55.1
normalised SPOT signal, Boehringer light units (BLU); mean over the file's lines of this peptide [3]: 648
normalised SPOT signal, Boehringer light units (BLU); mean over the file's lines of this peptide [4]: 87.1
normalised SPOT signal, Boehringer light units (BLU); mean over the file's lines of this peptide [5]: 147

B10: YHR164C 158-171 (peptide)
chain: SSTPIVPNRLKTVL
normalised SPOT signal, Boehringer light units (BLU); mean over the file's lines of this peptide [1]: 1960
normalised SPOT signal, Boehringer light units (BLU); mean over the file's lines of this peptide [2]: 10.8
normalised SPOT signal, Boehringer light units (BLU); mean over the file's lines of this peptide [3]: 6570
normalised SPOT signal, Boehringer light units (BLU); mean over the file's lines of this peptide [4]: 56.2
normalised SPOT signal, Boehringer light units (BLU); mean over the file's lines of this peptide [5]: 1490

B11: YOR326W 1092-1105 (peptide)
chain: SVLPQTPLKDVMGG
normalised SPOT signal, Boehringer light units (BLU); mean over the file's lines of this peptide [1]: 127
normalised SPOT signal, Boehringer light units (BLU); mean over the file's lines of this peptide [2]: 10.3
normalised SPOT signal, Boehringer light units (BLU); mean over the file's lines of this peptide [3]: 179
normalised SPOT signal, Boehringer light units (BLU); mean over the file's lines of this peptide [4]: 100
normalised SPOT signal, Boehringer light units (BLU); mean over the file's lines of this peptide [5]: 44.5

B12: YDR538W 48-61 (peptide)
chain: STSPPRPKRIVVAI
normalised SPOT signal, Boehringer light units (BLU); mean over the file's lines of this peptide [1]: 1340
normalised SPOT signal, Boehringer light units (BLU); mean over the file's lines of this peptide [2]: 79.7
normalised SPOT signal, Boehringer light units (BLU); mean over the file's lines of this peptide [3]: 3980
normalised SPOT signal, Boehringer light units (BLU); mean over the file's lines of this peptide [4]: 356
normalised SPOT signal, Boehringer light units (BLU); mean over the file's lines of this peptide [5]: 182

B13: YGR133W 86-99 (peptide)
chain: SSYPMNPPKISFMQ
normalised SPOT signal, Boehringer light units (BLU); mean over the file's lines of this peptide [1]: 215
normalised SPOT signal, Boehringer light units (BLU); mean over the file's lines of this peptide [2]: 111
normalised SPOT signal, Boehringer light units (BLU); mean over the file's lines of this peptide [3]: 440
normalised SPOT signal, Boehringer light units (BLU); mean over the file's lines of this peptide [4]: 17.1
normalised SPOT signal, Boehringer light units (BLU); mean over the file's lines of this peptide [5]: 65.4

B14: YDL197C 472-485 (peptide)
chain: TDSPQLPSKDKSQE
normalised SPOT signal, Boehringer light units (BLU); mean over the file's lines of this peptide [1]: 95.8
normalised SPOT signal, Boehringer light units (BLU); mean over the file's lines of this peptide [2]: -0
normalised SPOT signal, Boehringer light units (BLU); mean over the file's lines of this peptide [3]: 4380
normalised SPOT signal, Boehringer light units (BLU); mean over the file's lines of this peptide [4]: 116
normalised SPOT signal, Boehringer light units (BLU); mean over the file's lines of this peptide [5]: 95.6

B15: YHR129C 114-127 (peptide)
chain: TEAPMNPLKNREQM
normalised SPOT signal, Boehringer light units (BLU); mean over the file's lines of this peptide [1]: 319
normalised SPOT signal, Boehringer light units (BLU); mean over the file's lines of this peptide [2]: 56.4
normalised SPOT signal, Boehringer light units (BLU); mean over the file's lines of this peptide [3]: 395
normalised SPOT signal, Boehringer light units (BLU); mean over the file's lines of this peptide [4]: 1.9
normalised SPOT signal, Boehringer light units (BLU); mean over the file's lines of this peptide [5]: 21.5

B16: YPR018W 481-494 (peptide)
chain: TDGPIDPFKEPKTS
normalised SPOT signal, Boehringer light units (BLU); mean over the file's lines of this peptide [1]: 0
normalised SPOT signal, Boehringer light units (BLU); mean over the file's lines of this peptide [2]: 58.5
normalised SPOT signal, Boehringer light units (BLU); mean over the file's lines of this peptide [3]: 0
normalised SPOT signal, Boehringer light units (BLU); mean over the file's lines of this peptide [4]: 136
normalised SPOT signal, Boehringer light units (BLU); mean over the file's lines of this peptide [5]: 33.8

B17: YDR059C 59-72 (peptide)
chain: TDYPFKPPKVNFTT
normalised SPOT signal, Boehringer light units (BLU); mean over the file's lines of this peptide [1]: 232
normalised SPOT signal, Boehringer light units (BLU); mean over the file's lines of this peptide [2]: 65.8
normalised SPOT signal, Boehringer light units (BLU); mean over the file's lines of this peptide [3]: 570
normalised SPOT signal, Boehringer light units (BLU); mean over the file's lines of this peptide [4]: 58.8
normalised SPOT signal, Boehringer light units (BLU); mean over the file's lines of this peptide [5]: 93.6

B18: YJR090C 50-63 (peptide)
chain: STRPQMPSRTRETA
normalised SPOT signal, Boehringer light units (BLU); mean over the file's lines of this peptide [1]: 37.5
normalised SPOT signal, Boehringer light units (BLU); mean over the file's lines of this peptide [2]: 43.5
normalised SPOT signal, Boehringer light units (BLU); mean over the file's lines of this peptide [3]: 4030
normalised SPOT signal, Boehringer light units (BLU); mean over the file's lines of this peptide [4]: 311
normalised SPOT signal, Boehringer light units (BLU); mean over the file's lines of this peptide [5]: 74.7

B19: YNR021W 264-277 (peptide)
chain: TDLPVNPPRDDKEW
normalised SPOT signal, Boehringer light units (BLU); mean over the file's lines of this peptide [1]: 119
normalised SPOT signal, Boehringer light units (BLU); mean over the file's lines of this peptide [2]: 46.1
normalised SPOT signal, Boehringer light units (BLU); mean over the file's lines of this peptide [3]: 94.9
normalised SPOT signal, Boehringer light units (BLU); mean over the file's lines of this peptide [4]: 88.1
normalised SPOT signal, Boehringer light units (BLU); mean over the file's lines of this peptide [5]: 56.5

B20: YOR191W 815-828 (peptide)
chain: TGFPPTPLKREGVG
normalised SPOT signal, Boehringer light units (BLU); mean over the file's lines of this peptide [1]: 430
normalised SPOT signal, Boehringer light units (BLU); mean over the file's lines of this peptide [2]: 54
normalised SPOT signal, Boehringer light units (BLU); mean over the file's lines of this peptide [3]: 1730
normalised SPOT signal, Boehringer light units (BLU); mean over the file's lines of this peptide [4]: 7.5
normalised SPOT signal, Boehringer light units (BLU); mean over the file's lines of this peptide [5]: 58.1

B21: YDR464W 568-581 (peptide)
chain: TEVPSKPKKPSKTE
normalised SPOT signal, Boehringer light units (BLU); mean over the file's lines of this peptide [1]: 67.2
normalised SPOT signal, Boehringer light units (BLU); mean over the file's lines of this peptide [2]: 39.9
normalised SPOT signal, Boehringer light units (BLU); mean over the file's lines of this peptide [3]: 3310
normalised SPOT signal, Boehringer light units (BLU); mean over the file's lines of this peptide [4]: 361
normalised SPOT signal, Boehringer light units (BLU); mean over the file's lines of this peptide [5]: 75.4

B22: YHR182W 758-771 (peptide)
chain: SSTPTTPERPKRKS
normalised SPOT signal, Boehringer light units (BLU); mean over the file's lines of this peptide [1]: 31700
normalised SPOT signal, Boehringer light units (BLU); mean over the file's lines of this peptide [2]: 36.8
normalised SPOT signal, Boehringer light units (BLU); mean over the file's lines of this peptide [3]: 58100
normalised SPOT signal, Boehringer light units (BLU); mean over the file's lines of this peptide [4]: 818
normalised SPOT signal, Boehringer light units (BLU); mean over the file's lines of this peptide [5]: 579

— paper PMC314469, “Protein Interaction Networks by Proteome Peptide Scanning” (PLoS Biology, 2004)
